According to doi:10.1101/2024.03.26.586665 (bioRxiv, 2024):

Columns and labels:
[1] = molecular target: human CaMKIIα W403L hub (human) (UniProt Q9UQM7); assay: mass photometry
mass photometry = molecular target: the molecule itself; assay: mass photometry
SAXS = molecular target: the molecule itself; assay: SAXS

Q: Which stoichiometry N [1] does the source give for “human CaMKIIα W403L hub (from UniProt Q9UQM7 345-475) (domain or fragment)” here?
A: 12

B1: human CaMKIIα WT hub (calcium/calmodulin-dependent protein kinase II subtype alpha, hub domain) (domain or fragment, UniProt Q9UQM7 345-475, looked up)
chain: VRKQEIIKVTEQLIEAISNGDFESYTKMCDPGMTAFEPEALGNLVEGLDFHRFYFENLWSRNSKPVHTTILNPHIHLMGDESACIAYIRITQYLDAGGIPRTAQSEETRVWHRRDGKWQIVHFHRSGAPSV
Q: For B1, which “stoichiometry N” value (mass photometry) is on record?
A: 24

Q: And the “stoichiometry N” value (SAXS)?
A: 12
